According to publication PMC10837206, “R-Spondin 2 governs Xenopus left-right body axis formation by establishing an FGF signaling gradient” (Nature Communications, 2024):
Each block holds one binder with its values, some of them ahead of it.

Columns and labels:
[1] = molecular target: T1, recombinant human FGFR4 Fc Chimera (human, UniProt P22455 22-369); assay: in vitro competitive binding assay (solid phase, bound AP activity); as a8; the peptide (100 uM) against coated FGFR4 Fc Chimera; conditions: both partners purified
T1 construct: Fibroblast Growth Factor receptor 4 (FGFR4), human, extracellular domain; also called FGFR4^ECD; extracellular domain (ECD) of FGFR4; source: bought: R&D systems 685-FR and BioLegend 752502
T1 sequence (looked up): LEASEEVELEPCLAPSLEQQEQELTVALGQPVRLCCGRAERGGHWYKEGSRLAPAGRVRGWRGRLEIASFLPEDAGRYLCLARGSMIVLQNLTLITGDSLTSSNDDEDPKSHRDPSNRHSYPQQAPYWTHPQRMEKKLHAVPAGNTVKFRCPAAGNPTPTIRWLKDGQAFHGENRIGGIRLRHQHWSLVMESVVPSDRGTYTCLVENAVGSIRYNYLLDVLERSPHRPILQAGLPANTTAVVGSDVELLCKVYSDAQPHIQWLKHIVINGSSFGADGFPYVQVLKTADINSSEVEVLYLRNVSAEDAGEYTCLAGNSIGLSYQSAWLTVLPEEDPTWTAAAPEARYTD

[2] = molecular target: T1, recombinant human FGFR4 Fc Chimera; assay: in vitro binding assay (solid phase, bound AP activity); titration of RSPO2-AP on coated FGFR4 Fc Chimera (R&D systems 685-FR); Scatchard analysis; conditions: one partner purified

binding result [1]: binds
B1: TK peptide (10-mer derived from the human RSPO2 TSP1 domain) (peptide)
peptide: TRQIVKKPVK
notes: stretch of the TSP1 domain of human R-Spondin 2 (RSPO2)

Kd [2]: 1.5 nM
B2: human RSPO2-AP (alkaline-phosphatase-tagged R-Spondin 2 fusion protein) (ligand, UniProt Q6UXX9 22-243, looked up)
chain: QGNRWRRSKRASYVSNPICKGCLSCSKDNGCSRCQQKLFFFLRREGMRQYGECLHSCPSGYYGHRAPDMNRCARCRIENCDSCFSKDFCTKCKVGFYLHRGRCFDECPDGFAPLEETMECVEGCEVGHWSEWGTCSRNNRTCGFKWGLETRTRQIVKKPVKDTILCPTIAESRRCKMTMRHCPGGKRTPKAKEKRNKKKKRKLIERAQEQHSVFLATDRANQ
notes: R-Spondin 2 (RSPO2), human; also called R2; source: HEK293T, transfected, conditioned medium

binding result [1]: binds
B3: KC peptide (10-mer derived from the human RSPO2 TSP1 domain) (peptide)
peptide: KKPVKDTILC
notes: as for B1
